Square brackets hold non-standard residues; d marks the D form. Ends that are not written are not given here.
Biological target: Human recombinant melanocortin MC1 receptor (human) (UniProt Q01726)
Experiment: radioligand competition, displacement of [125I]NDP-alpha-MSH from human MC1R (CHO-K1), Example 7

Human recombinant melanocortin MC1 receptor (human), sequence (Q01726 whole entry): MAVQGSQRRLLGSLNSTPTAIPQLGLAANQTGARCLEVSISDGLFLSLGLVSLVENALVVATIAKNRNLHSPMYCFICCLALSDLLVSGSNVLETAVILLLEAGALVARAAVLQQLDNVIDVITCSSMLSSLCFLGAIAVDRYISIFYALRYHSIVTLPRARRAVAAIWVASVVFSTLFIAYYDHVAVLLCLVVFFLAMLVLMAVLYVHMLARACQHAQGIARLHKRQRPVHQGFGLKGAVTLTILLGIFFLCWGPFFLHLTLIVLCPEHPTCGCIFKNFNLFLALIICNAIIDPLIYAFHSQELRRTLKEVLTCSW

IC50 [nM] | Binder
> 500 | MV[dF][dR][dW]FKPV-NH2 (N-terminus assumed; SMILES CSCC[C@H](N)C(=O)N[C@H](C(=O)N[C@H](Cc1ccccc1)C(=O)N[C@H](CCCNC(=N)N)C(=O)N[C@H](Cc1c[nH]c2ccccc12)C(=O)N[C@@H](Cc1ccccc1)C(=O)N[C@@H](CCCCN)C(=O)N1CCC[C@H]1C(=O)N[C@H](C(N)=O)C(C)C)C(C)C) [SEQ ID NO: 35]
> 500 | A[dL][dF]R[dW]FKPV-NH2 (N-terminus assumed; SMILES CC(C)C[C@@H](NC(=O)[C@H](C)N)C(=O)N[C@H](Cc1ccccc1)C(=O)N[C@@H](CCCNC(=N)N)C(=O)N[C@H](Cc1c[nH]c2ccccc12)C(=O)N[C@@H](Cc1ccccc1)C(=O)N[C@@H](CCCCN)C(=O)N1CCC[C@H]1C(=O)N[C@H](C(N)=O)C(C)C) [SEQ ID NO: 40]

Source: patent publication US20250026787A1, “PEPTIDES AND METHODS FOR REDUCING SKIN PIGMENTATION” (Glo Pharma, Inc., priority 2021, published 2025)
